The record followed here is publication PMC10685657.

This experiment deals with HA-TRIP12. The experiment can be described thus: co-IP (IP-GFP, immunoblot for TRIP12; band intensity printed above lanes). The conditions noted are these: HEK293T cells, harvested for lysis 48 h after transfection; HA-TRIP12 co-transfected. Background: Immunoblotting shows a protein as a band on a membrane.

On to “GFP-EZH2 wildtype (from UniProt Q15910) K634R”, for which the ratio to parent is 0.16.
